Test: purified protein yield per well (BCA); higher = higher soluble expression
Procedure, shortened: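 Expression was done in E. coli C41(DE3), using 2 mL autoinduction cultures with 100 µg/mL kanamycin incubated at 37 °C for 2 h and at 18 °C for 40 h. Protein was purified on Ni-charged magnetic beads and released by SUMO protease cleavage. Yield of purified protein per well was measured with the Pierce Rapid Gold BCA kit; values below 25 ug (0.1 mg/mL) are below detection.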

| Sequence | purified protein yield per well |
| --- | --- |
| QSNPYQRGPAPTASSLEASRGPLAISQFTVSRPSGYRAGTVYYPTNAGGTVGAIAVVPGYTAYQSDINWWGPRLASWGFVVITIDTNSTLDQPSSRSRQQLAALDQVAALSRTSSSPIYNKVDTSRMGVMGWSMGGGGSLISTENRPSLKASIPFAPWNSTSSFSSVVTPTFIIACQSDIIAPVASHADDFYDSLSRPPKMFLEIRGGSHYCANSSNNDKGLLGSKGVAWMKRYIDNDTRFTSYACSNPNTLAVSDFRTARCS [ESM104] | < 25 µg |
| QSNPYQRGPNPTRAALMTDGPYAVATASVWPYIYGFGGGTIYYPTGTTETFGGIAVSPGFTADSTSLAWFGRRLASHGFVVIVINTNSRFDFPDSRASQLQAAIDYLRTNSPAAVRARLDENRIAVAGHSMGGGASLRASERLPWLKASVPLTPWHTDKTFSTSVPQLIIGAEWDTIAPVSSHAIPFYNNLPSSTPKVYLELNNATHFAPNTTNATISLYAISWMKRWVDNDTRYNQFLCGVNHTADPSISDYRTNAWTYCP [DP073] | < 25 µg |
| QSTTPTSSALNATAGPLAVSTSTVTLASGFGGGTIYYPTTAGSYGLIALCPGFTATETSLAWLARRLASWGFVVVNMNTTTTMDQPASRATQLMAALKYALNSSSSAVRARIDPSRLAVAGHSMGGGGTLIAARDNPTLKAGYPLTPWNSSTNFSGVTVPTMIIGSDGDTVAPVAQHARPFYASLPAATFKAYGELNNATHFTPNSTSTPIGRYGVAWMKRFLDGDTRYSTFLCGSEHAAYATSLVFDRYNQNCPY [ESM187] | < 25 µg |
| QSYVHGPDPTTAALETTGPYAVSNTKIAAPSGYGGGTVYYPTTNTEGAFAVVSVTPGFTEKQSAINWLGPLLASHGFVVVTIDTKTALDAPSSRAKQMIAALKQVSGLSANSTSPFAGRVDGTRQAVMGHSMGGGGSLDAARDNPTLKASIPMAPWETVKNYSTMTVPTLIVSCESDTIAPVASHANKFYDSFTPTLNKALLEMKGVGHSCTNSTTSAALKAVIGKYSISWLKRFADNDNRYSDFLCGASHQADVSGSLISTYKENCPY [DP066] | < 25 µg |
| QTNPYARGPNPTASSLEASTGPFAYRSFTVSRPSGYGAGTVYYPTNAGGTVGAIAIVPGYTARQSSINWWGPRLASHGFVVITIDTNSTLDQPSSRSRQQMAALQQVASLNSTSSSPIYGKVDTSRMGVMGWSMGGGGSLISARDNPSLKAAAPQAPWNTSSSFSSMTVPTLIFACESDSIAPVNSHASPMYNSMRSNPRQYLEINNGSHSCANSGNSNQALIGKKGVAWMKRYMDNDTRYSTFACQNPNSTRVSDFRVANCS [ESM094] | < 25 µg |
| QTNPYARGPNPTDSLLEASRGPFSISSFTVSRPSGYGAGTVYYPTNAGGTVGAIAIVPGYTARQSSINWWGPRLASHGFVVITIDTNSTLDQPSSRSRQQMAALSQVVSLSRTSTSPIYNKVDASRLGVMGWSMGGGGSLISARDNPSIKAAAPQAPWNTSSNFSSMTVPTLIFACENDSIASTSSHASPMYNSMRLNPRQYFEINNGSHSCANSGNSNQALIGKRGVAWMKRFMDNDTRYTSFACSNPNTFSVSEFRTANCS [ESM180] | < 25 µg |
| QTNPYARGPNPTRDSLEASRGPFAFSSFTVSRPSGYAGGTVYYPTNAGGTVGAIAVVPGFSARQSSINWWGPRLASHGFVVITIDTNSSFDQPPSRSRQQLAALDQVATLARTSGSPIYNKVDTTRMGVMGSSMGGGGSMISAQNRPSLKAAIPQSPSVSSTNFSSVVVPTLIFACENDTVPPGGSQAVAIYNSMMLNPKQLLEIAGGSPFCGNSN [ESM182] | < 25 µg |
| QTNPYERGPAPTTASLEASRGPFSISSFTVSRPSGYGAGTVYYPTNAGGTVGAIAIVPGFLARQSSINWWGPRLASHGFVVITIDTNSTLDQPASRSRQQLAALDQVAALARTSSSPIYNRVDTTRMGVMGWSMGGGGTLISAQNRPSIKAAAPQAPYNSSTNFSSVTVPTLIFACENDTVAPVNRHASPFYSSMSRNSKQYLEINGGSHSCANSGNSNQPLIGKKGVAWMKRFMDNDTRYTPFACANPNSTRVSEFRTANCS [ESM073] | < 25 µg |
| QTNPYERGPAPTTSSLEASRGPFSYQSFTVSRPSGYRAGTVYYPTNAGGPVGAIAIVPGFTARQSSINWWGPRLASHGFVVITIDTNSTLDQPDSRSRQQMAALSQVATLSRTSSSPIYNKVDTSRLGVMGWSMGGGGSLISARNNPSIKAAAPQAPWSASKNFSSLTVPTLIIACENDTIAPVNQHADTFYDSMSRNPREFLEINNGSHSCANSGNSNQALLGKKGVAWMKRFMDNDRRYTSFACSNPNSYNVSDFRVAACN [ESM158] | < 25 µg |
| QTPQAPTAASLNATSGPLSVSTQSVSSLSARGFGGGTVYYPTTAGRYGAVAISPGFTATQSSVAWLGRRLASHGLVVITINTNSTLDQPASRATQLMAALTYVTSASGTTVQSRVDPQRLAVAGHSMGGGGALIAARDNPTLKASLPLTPWNTTTNFSGIRVPTLIVGADGDTVASVTAHARPFYASLPSNTFKAYAELNSASHFTPNSANTPIGRYGVTWLKRFVDNDSRYSPFLCGAEHQAYATAQVFDRYQQNCPY [ESM188] | < 25 µg |
| QTPTRESLSRQGPYQVAYYSSLPDVPEYAGATLYFPANKGDSFGGVAIAPGFIETQENIAWWGEYLASYGFAVLTLDTNSPRDIPALRADALMAAVEIIRGENTRMGSPLRGKIDVTRMAIMGHSMGGGGTLLAANAHSDQLKAAIPFTPWLPDADFSAVAVPTLVIAGEIDRIAAAAGHAWPHFQTLPDNIPKMYLEIKGGNHFIANSVTDNEGLAPNIDVHDLVGSMS [TEP027] | < 25 µg |
| QTSAPTSASLNASSGPLSVSTASVTLPRGFGGGTIYYPTVAAKYGVIAISPGFTATQSSIAWLGRRIATHGFVVITINTNTTLDQPDSRATQLVAALNHVLNSSGTAVRSRIDPARLAVAGHSMGGGGSLIAARDNPTLKASYPMTPWNISSNFSTVRVPTMIIGADGDTVAPVGTHARPFYASLPSSTFKAYGELNGATHFAPNTTSTPIGRYAVAWMKRFVDGDTRYSPFLCGAQHTSYATGLVFDRYNQNCPY [ESM054] | < 25 µg |
| QTSAPTSASLNATAGPLSVSTASVLVPVGFGGGTIYYPTVAGQYGVIAISPGFTATQSSIAWLGRRIATHGFVVITLNTNTTLDQPDSRATQLLAALRYVTNSSGTAVRSRIDATRLAVAGHSMGGGGSLIAARDNPTLKASYPLTPWNISTNFSTVRVPTLIIGADGDTIAPVASHARPFYASLPSTTFKAYGELNNATHFTPNSTSTPIGRYGVAWFKRFLDGDTRYSPFLCGAQHTAYATALVFDRYNQNCPY [ESM141] | < 25 µg |
| QTSAPTSSSLNATSGYLSVASENVSSLSASGFGGGTIYYPSTSGQYGLIAISPGFTATESSVAWIGRKLASHGFVAIVINTNTTLDQPASRARQLRAALDHARLRASSTVRSRIDASRQAVAGHSMGGGGSLIAAEDDPTLKASFPLTPWNTTTSFTNVRVPTMIFGADGDTIAAVAAHARPFYASIPSSTKKAYAELNGATHFTPNSRNEAIGRYGVAWMKRFMDNDTRYSTFLCGSEHNSYNTSLRFDRYNSNCPY [ESM123] | < 25 µg |
| QTSDPTSASLNASAGPLSVSTASVTAPRGFGGGTIYYPTTQARYGVIAISPGFTATETSIAWLGRRIATHGFVVITLNTLTTLDQPASRANQLMAALTYVVNSSSSAVKARIDTARLAVAGHSMGGGGALIAARDNPTLKASYPLTPWNSSTSFSTVRVPTMIVGADGDTIAPVATHARPFYASLPSATSKAYGELNNGTHFSPNSTNTPIGRYGVAWMKRFVDGDTRYSTFLCGTEHTRYATALVFDRFNQNCPY [ESM191] | < 25 µg |
| QTSDPTSTSLNATSGPLSISSTSVSSFSARGFGGGTIYYPSASGRYGVVAISPGYTARQSSIAWLGRRLASHGFVVITIDTNSTLDQPPSRATQLMAALDHVVNRASSTVRSRVDAARLAVAGHSMGGGGSLIAARDNPSLRAVYPMTPWSVSKDFSAVRVPTMIIGADNDSVASVVTHARPFYSSLAASLPKAYGELNNASHFAPNTTNTPIGRYAVTWMKRFVDGDTRYSPFLCGTPHNQYATSQVFARYQQNCPY [ESM134] | < 25 µg |
